Measured values reported in article PMC12260418 (Proceedings of the National Academy of Sciences of the …, 2025).
Where no end group is shown, it is not given here.

B1: Recombinant TEAD1 (S210-D426) (domain or fragment)
chain: SIGTTKLRLVEFSAFLEQQRDPDSYNKHLFVHIGHANHSYSDPLLESVDIRQIYDKFPEKKGGLKELFGKGPQNAFFLVKFWADLNCNIQDDAGAFYGVTSQYESSENMTVTCSTKVCSFGKQVVEKVETEYARFENGRFVYRINRSPMCEYMINFIHKLKHLPEKYMMNSVLENFTILLVVTNRDTQETLLCMACVFEVSNSEHGAQHHIYRLVKD
B2: biotinylated WT VGLL4 peptide (residues 202-259) (peptide)
peptide: ATTCDPVVEEHFRRSLGKNYKEPEPAPNSVSITGSVDDHFAKALGDTWLQIKAAKDGA
modifications: also: biotinylated, position not given here

Tests used:
TEAD1 = TEAD1 (Homo sapiens, UniProt P28347); test: SPR of recombinant TEAD1 and VGLL4 peptide with compound; type: binding
[1] = molecular target: B2; test: SPR
[2] = molecular target: B2; test: SPR; remark: listed apart in the source
[3] = molecular target: B1; test: SPR

GNE-7883
SPR of recombinant TEAD1 and VGLL4 peptide with compound; TEAD1 AP-MS in cells (TEAD1): ~ 2 fold change in VGLL4-TEAD1 KD

B1
fold increase in affinity with VT-103 against DMSO [1]: ~12 fold
fold decrease of KD with GNE-7883 against DMSO [2]: ~2 fold

B2
Kd [3]: ~500 nM

B3: biotinylated VGLL4 peptide (residues 202-259), TDU1 mutant (peptide)
peptide: ATTCDPVVEEAARRSLGKNYKEPEPAPNSVSITGSVDDHFAKALGDTWLQIKAAKDGA
modifications: also: biotinylated, position not given here
binding result [3]: binds
